Columns and labels:
[1] = target: haemagglutinin (HA) of human influenza A type virus strain A/Okuda/57 (H2N2 subtype) (human influenza A type virus, H2N2 subtype, strain A/Okuda/57)
[2] = target: haemagglutinin (HA) of human influenza A type virus strain A/PR/8/34 (H1N1 subtype) (human influenza A type virus, H1N1 subtype, strain A/PR/8/34) (UniProt P03452)
[3] = target: haemagglutinin (HA) of human influenza A type virus strain A2/Aichi/2/68 (H3N2 subtype) (human influenza A type virus, H3N2 subtype, strain A2/Aichi/2/68) (UniProt P03437)
[4] = target: haemagglutinin (HA) of human influenza A type virus strain A/Adachi/2/57 (H2N2 subtype) (human influenza A type virus, H2N2 subtype, strain A/Adachi/2/57)
[5] = target: haemagglutinin (HA) of human influenza A type virus strain A/Bangkok/10/83 (H1N1 subtype) (human influenza A type virus, H1N1 subtype, strain A/Bangkok/10/83)
[6] = target: haemagglutinin (HA) of human influenza A type virus strain A/Fukuoka/C29/85 (H3N2 subtype) (human influenza A type virus, H3N2 subtype, strain A/Fukuoka/C29/85)
[7] = target: haemagglutinin (HA) of human influenza A type virus strain A/Ibaraki/1/90 (H3N2 subtype) (human influenza A type virus, H3N2 subtype, strain A/Ibaraki/1/90)
[8] = target: haemagglutinin (HA) of human influenza A type virus strain A/Izumi/5/65 (H2N2 subtype) (human influenza A type virus, H2N2 subtype, strain A/Izumi/5/65)
[9] = target: haemagglutinin (HA) of human influenza A type virus strain A/Kaizuka/2/65 (H2N2 subtype) (human influenza A type virus, H2N2 subtype, strain A/Kaizuka/2/65)
[10] = target: haemagglutinin (HA) of human influenza A type virus strain A/Kitakyushu/159/93 (H3N2 subtype) (human influenza A type virus, H3N2 subtype, strain A/Kitakyushu/159/93)
[11] = target: haemagglutinin (HA) of human influenza A type virus strain A/Kumamoto/1/65 (H2N2 subtype) (human influenza A type virus, H2N2 subtype, strain A/Kumamoto/1/65)
[12] = target: haemagglutinin (HA) of human influenza A type virus strain A/Okuda/57 (H2N2 subtype) (human influenza A type virus, H2N2 subtype, strain A/Okuda/57); remark: listed apart in the source
[13] = target: haemagglutinin (HA) of human influenza A type virus strain A/Osaka/930/88 (H1N1 subtype) (human influenza A type virus, H1N1 subtype, strain A/Osaka/930/88)
[14] = target: haemagglutinin (HA) of human influenza A type virus strain A/PR/8/34 (H1N1 subtype) (human influenza A type virus, H1N1 subtype, strain A/PR/8/34) (UniProt P03452); remark: listed apart in the source
[15] = target: haemagglutinin (HA) of human influenza A type virus strain A/Sichuan/2/87 (H3N2 subtype) (human influenza A type virus, H3N2 subtype, strain A/Sichuan/2/87)
[16] = target: haemagglutinin (HA) of human influenza A type virus strain A/Suita/1/89 (H1N1 subtype) (human influenza A type virus, H1N1 subtype, strain A/Suita/1/89)
[17] = target: haemagglutinin (HA) of human influenza A type virus strain A/Suita/1/90 (H3N2 subtype) (human influenza A type virus, H3N2 subtype, strain A/Suita/1/90)
[18] = target: haemagglutinin (HA) of human influenza A type virus strain A/Yamagata/120/86 (H1N1 subtype) (human influenza A type virus, H1N1 subtype, strain A/Yamagata/120/86)
[19] = target: haemagglutinin (HA) of human influenza A type virus strain A1/FM/1/47 (H1N1 subtype) (human influenza A type virus, H1N1 subtype, strain A1/FM/1/47)
[20] = target: haemagglutinin (HA) of human influenza A type virus strain A2/Aichi/2/68 (H3N2 subtype) (human influenza A type virus, H3N2 subtype, strain A2/Aichi/2/68) (UniProt P03437); remark: listed apart in the source
[21] = target: influenza B type virus strain B/Nagasaki/1/87 (influenza B type virus, strain B/Nagasaki/1/87)

## fused polypeptide of scFv of C179 with two Fc binding domain-like structures of protein A
[1]
  Absorbance at 492 nm (absorbance at 492 nm): 0.303
[2]
  Absorbance at 492 nm (absorbance at 492 nm): 0.15
[3]
  Absorbance at 492 nm (absorbance at 492 nm): 0.074

B1: monoclonal antibody C179 (antibody, V domains shown)
VH: EVKLVESGGGLVQPGGSLRLSCGTSGFTLTDDYMTWVRQPPGKALEWLGFIRDRANGYTTEYSASVKGRFTISRDNSQSIVYLQMNTLRVEDSATYYCARPKGYFPYAMDYWGQGT
VL: DIQMTQSPASQSASLGESVTITCLASQTIGTWLAWYQQKPGKSPQLLIYAATSLADGVPSRFSGSGSGTKFSFKISSLQAEDFVSYYCQQLYSTPWTF
[4]
  HI activity (haemagglutination inhibition, antibody titer) (dilution ratio of the ascites fluid): < 32
  Neutralization activity (focus reduction neutralization test, antibody titer): 1024
  Staining activity (antibody titer): 1.64e+06
[5]
  HI activity (haemagglutination inhibition, antibody titer) (dilution ratio of the ascites fluid): < 32
  Neutralization activity (focus reduction neutralization test, antibody titer): 512
  Staining activity (antibody titer): 1.64e+06
[6]
  HI activity (haemagglutination inhibition, antibody titer) (dilution ratio of the ascites fluid): < 32
  Neutralization activity (focus reduction neutralization test, antibody titer): < 16
  Staining activity (antibody titer): < 100
[7]
  HI activity (haemagglutination inhibition, antibody titer) (dilution ratio of the ascites fluid): < 32
  Neutralization activity (focus reduction neutralization test, antibody titer): < 16
  Staining activity (antibody titer): < 100
[8]
  HI activity (haemagglutination inhibition, antibody titer) (dilution ratio of the ascites fluid): < 32
  Neutralization activity (focus reduction neutralization test, antibody titer): 1024
  Staining activity (antibody titer): 410000
[9]
  HI activity (haemagglutination inhibition, antibody titer) (dilution ratio of the ascites fluid): < 32
  Neutralization activity (focus reduction neutralization test, antibody titer): 2048
  Staining activity (antibody titer): 410000
[10]
  HI activity (haemagglutination inhibition, antibody titer) (dilution ratio of the ascites fluid): < 32
  Neutralization activity (focus reduction neutralization test, antibody titer): < 16
  Staining activity (antibody titer): < 100
[11]
  HI activity (haemagglutination inhibition, antibody titer) (dilution ratio of the ascites fluid): < 32
  Neutralization activity (focus reduction neutralization test, antibody titer): 1024
  Staining activity (antibody titer): 410000
[12]
  HI activity (haemagglutination inhibition, antibody titer) (dilution ratio of the ascites fluid): < 32
  Neutralization activity (focus reduction neutralization test, antibody titer): 1024
  Staining activity (antibody titer): 1.64e+06
[13]
  HI activity (haemagglutination inhibition, antibody titer) (dilution ratio of the ascites fluid): < 32
  Neutralization activity (focus reduction neutralization test, antibody titer): 512
  Staining activity (antibody titer): 410000
[14]
  HI activity (haemagglutination inhibition, antibody titer) (dilution ratio of the ascites fluid): < 32
  Neutralization activity (focus reduction neutralization test, antibody titer): 512
[15]
  HI activity (haemagglutination inhibition, antibody titer) (dilution ratio of the ascites fluid): < 32
  Neutralization activity (focus reduction neutralization test, antibody titer): < 16
  Staining activity (antibody titer): < 100
[16]
  HI activity (haemagglutination inhibition, antibody titer) (dilution ratio of the ascites fluid): < 32
  Neutralization activity (focus reduction neutralization test, antibody titer): 1024
  Staining activity (antibody titer): 410000
[17]
  HI activity (haemagglutination inhibition, antibody titer) (dilution ratio of the ascites fluid): < 32
  Neutralization activity (focus reduction neutralization test, antibody titer): < 16
  Staining activity (antibody titer): < 100
[18]
  HI activity (haemagglutination inhibition, antibody titer) (dilution ratio of the ascites fluid): < 32
  Neutralization activity (focus reduction neutralization test, antibody titer): 1024
  Staining activity (antibody titer): 410000
[19]
  HI activity (haemagglutination inhibition, antibody titer) (dilution ratio of the ascites fluid): < 32
  Neutralization activity (focus reduction neutralization test, antibody titer): 512
  Staining activity (antibody titer): 410000
[20]
  HI activity (haemagglutination inhibition, antibody titer) (dilution ratio of the ascites fluid): < 32
  Neutralization activity (focus reduction neutralization test, antibody titer): < 16
[21]
  HI activity (haemagglutination inhibition, antibody titer) (dilution ratio of the ascites fluid): < 32
  Neutralization activity (focus reduction neutralization test, antibody titer): < 16
  Staining activity (antibody titer): < 100
